# Experimental data reported in US9695460B2, “Method of analyzing L-tryptophan in biological samples, and kit used therein” (Toyama Prefecture, priority 2011, dated 2017).
# B1: StaO, L-tryptophan oxidase derived from Streptomyces sp. TA-A0724, SEQ ID NO: 2 (Streptomyces sp. TP-A0274) (protein)
# chain: MTAPLQDSDGPDDAIGGPKQVTVIGAGIAGLVTAYELERLGHHVQIIEGSDDIGGRIHTHRFSGAGGPGPFAEMGAMRIPAGHRLTMHYIAELGLQNQVREFRTLFSDDAAYLPSSAGYLRVREAHDTLVDEFATGLPSAHYRQDTLLFGAWLDASIRAIAPRQFYDGLHNDIGVELLNLVDDIDLTPYRCGTARNRIDLHALFADHPRVRASCPPRLERFLDDVLDETSSSIVRLKDGMDELPRRLASRIRGKISLGQEVTGIDVHDDTVTLTVRQGLRTVTRTCDYVVCTIPFTVLRTLRLTGFDQDKLDIVHETKYWPATKIAFHCREPFWEKDGISGGASFTGGHVRQTYYPPAEGDPALGAVLLASYTIGPDAEALARMDEAERDALVAKELSVMHPELRRPGMVLAVAGRDWGARRWSRGAATVRWGQEAALREAERRECARPQKGLFFAGEHCSSKPAWIEGAIESAIDAAHEIEWYEPRASRVFAASRLSRSDRSA
# notes: peroxidase-coupled assay
# B2: StaO: L-tryptophan oxidase with the amino acid sequence of SEQ ID NO: 2, derived from Streptomyces sp. TA-A0724, His-tagged, expressed in E. coli (protein)
# chain: B1 chain
# modifications: His tag; Streptomyces sp. TP-A0274
# notes: TA-A0724, His-tagged, expressed in E. coli
# How the values were obtained:
# [1] = system: VioA, L-tryptophan oxidase derived from Chromobacterium violaceum, SEQ ID NO: 1; conditions: reported in Balibar and Walsh (2006) Biochemistry 45, 15444-15457; cited from earlier work
# [2] = system: L-amino acid oxidase derived from Coprinus sp.; conditions: Japanese Un-examined patent publication No. 2001-069974, read-out: Km value for L-tryptophan; cited from earlier work
# [3] = substrate: N[C@@H](Cc1c[nH]c2ccccc12)C(=O)O; test: Km value of L-tryptophan oxidase StaO for L-tryptophan (peroxidase-coupled, absorbance at 505 nm); type: biochemical, Streptomyces sp. TA-A0724; conditions: other: StaO, 20 mM tris-hydrochloric acid buffer pH 8.0, 30° C., 0-500 μM L-tryptophan, 0.5 mU/mL enzyme
# Source text: StaO is an enzyme that has the amino acid sequence given in SEQ ID NO: 2 in the Sequence Listing, that has oxidase activity of acting on L-tryptophan in the presence of oxygen and water to produce hydrogen peroxide and ammonia, that has oxidase activity on L-phenylalanine falling within a range of 0 to 3% of the oxidase activity on L-tryptophan, and that has no oxidase activity on the protein-constituting amino acids other than L-tryptophan and L-phenylalanine. StaO can be derived from Streptomyces sp. TA-A0724. The gene encoding StaO was discovered in the biosynthesis gene cluster of staurosporine, an antibiotic produced by the above bacterium (Onaka, H., Taniguchi, S., Igarashi, Y., and Furumai, T. (2002) J Antibiot 55, 1063-1071). This gene has no significant homology with the VioA gene, nor is there any example of biological analysis of the genetic product. Thus, the properties of the genetic product were unknown. […]
# The supernatant of each solution of the ruptured expression strains was loaded onto an Ni Sepharose column made by GE Healthcare, washed with 20 mM Tris-HCl and 50 mM imidazole (pH 8.0), and then eluted with a solution of 20 mM Tris-HCl and 500 mM imidazole (pH 8.0) to purify and recover the target enzyme. The base sequences of these enzymes were determined, and are shown as SEQ ID NOS: 3 and 4. […]
# [4] = Substrate specificity for amino acids of L-tryptophan oxidase (peroxidase-coupled, absorbance at 505 nm); type: biochemical
# Method: A reaction solution of 20 mM tris-hydrochloric acid buffer (pH 8.0), 5 mM L-tryptophan, 1 mM phenol, 1 mM 4-aminoantipyrine, 15 U/mL horseradish-derived peroxidase, and some quantity of L-tryptophan oxidase enzyme solution was prepared and the change in absorbance at 505 nm was measured at 30° C. The mol absorbance coefficient of quinoneimine dye was considered to be 6.4 mM^−1·cm^−1. Activity generating 1 μmol of hydrogen peroxide per minute was defined as 1 U. The detection limit of this method was 0.5%.
# Reaction solutions each containing 20 mM of tris-hydrochloric acid buffer (pH 8.0), 1 mM of phenol, 1 mM of 4-aminoantipyrine, 15 U/mL of horseradish-derived peroxidase, 0.2 to 20 mU/mL of L-tryptophan oxidase, and 0.5 mM of an amino acid (one of the 20 protein-constituting amino acids) were prepared and the change in absorbance at 505 nm was measured at 30° C. The relative activity for each amino acid was calculated from the measurement values obtained, yielding the results given in Table 1. The detection limit of this method was 0.5%.
# [5] = Dependence on reaction temperature; type: biochemical
# Method: StaO and VioA activity measurement was conducted at reaction temperatures of 20, 30, 40, 50, and 60° C. An activity measurement reaction solution of 20 mM of tris-hydrochloric acid buffer (pH 8.0), 1 mM of L-tryptophan, 1 mM of phenol, 1 mM of 4-aminoantipyrine, 15 U/mL of horseradish-derived peroxidase, and L-tryptophan oxidase enzyme solution was employed. Everything in the above reaction solution but the peroxidase and L-tryptophan oxidase enzyme solution was admixed, and 10 minutes of preincubation was conducted at various temperatures. While maintaining the temperature of the reaction solution, the peroxidase and the L-tryptophan oxidase enzyme solution were added and the reaction was begun. The change in absorbance at 505 nm was rapidly measured. […] The effect of deactivation at high temperature became marked in StaO at 60° C. and in VioA at 50° C. and above, making it difficult to accurately measure the activity.
# [6] = Thermal stability (residual activity after 1 hour heat treatment); type: physicochemical; conditions: activity prior to heat treatment as 100, StaO in 20% glycerol, VioA in 10% glycerol
# Method: The activity was measured after heat treating StaO enzyme solutions containing 20% glycerol and VioA enzyme solutions containing 10% glycerol for 1 hour at 30, 40, 50, 60, and 70° C. […] At heat treatments of 50° C. and above, the residual activity dropped below the detection limit.
# [7] = Stability on storage at 4° C. at various glycerol concentrations; type: physicochemical
# Method: Glycerol was added to final concentrations of 0 to 50% (v/v) to StaO and VioA purified enzyme solutions. The enzymatic solutions were stored at 4° C., sampled over time, and the activity was measured. The change over time in the residual activity of StaO and VioA stored in the presence of various glycerol concentrations are given in FIGS. 7 and 8.
# [8] = 0.5 mM amino acid, pH 8.0, 30° C., No activity = at or below detection limit 0.5%
# [9] = activity at 20° C. as 100, 1 mM L-tryptophan, pH 8.0
# [10] = activity at 20° C. as 100, * = estimated value when greatly impacted by thermal deactivation
molecule,measurement,setting,value
N[C@@H](Cc1c[nH]c2ccccc12)C(=O)O [L-tryptophan],Km,[1],30 µM
same,Km,[2],650 µM
B1,Km,[3],19 μM μM
B2,"Relative activity, L-tryptophan","[4]; 0.5 mM amino acid, pH 8.0, 30° C., L-tryptophan = 100%",100%
same,"Relative activity, L-tyrosine",[4]; [8],No activity
same,"Relative activity, other amino acids (17 listed in the footnote)",[4]; [8],No activity
same,Reactivity to amino acids other than L-tryptophan,[4]; relative activity below the detection limit (0.5%),did not exhibit reactivity
same,Relative activity at reaction temperature 20° C.,[5]; [9],100
same,Relative activity at reaction temperature 30° C.,[5]; [9],156
same,Relative activity at reaction temperature 40° C.,[5]; [9],268
same,Relative activity at reaction temperature 50° C.,[5]; [10],427
same,Relative activity at reaction temperature 60° C.,[5]; [10],480*
same,Reaction temperature at which the effect of deactivation became marked,[5]; activity measurement at 20-60° C.,60 °C
same,Relative (residual) activity following heat treatment at 30° C.,[6],73
same,Relative (residual) activity following heat treatment at 40° C.,[6],1
same,Relative (residual) activity following heat treatment at ≧50° C.,[6],<1
same,Stability of enzyme solution on storage,[7]; 30% or more of glycerol added,high stability
same,Stability of enzyme solution on storage,"[7]; buffer only, no glycerol",unstable
